Assay results reported in patent publication US20130266566A1.

T1: rat PAI-1 (rat) (UniProt P20961)
T1 sequence: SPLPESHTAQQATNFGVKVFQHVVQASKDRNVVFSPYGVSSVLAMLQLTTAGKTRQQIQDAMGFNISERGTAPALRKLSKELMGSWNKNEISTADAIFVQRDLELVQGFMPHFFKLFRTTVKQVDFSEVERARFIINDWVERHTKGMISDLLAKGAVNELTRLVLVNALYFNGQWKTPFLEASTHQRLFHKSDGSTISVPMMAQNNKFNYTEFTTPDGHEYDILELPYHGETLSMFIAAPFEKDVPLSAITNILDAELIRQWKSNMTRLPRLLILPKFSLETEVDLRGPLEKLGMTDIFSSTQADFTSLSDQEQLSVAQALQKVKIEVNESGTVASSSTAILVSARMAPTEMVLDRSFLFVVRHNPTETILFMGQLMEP


What was measured:
[1] = target: Antibody 16 IgG1, not germlined; assay: competition binding assay: Antibody 16 IgG adsorbed to the plate, biotinylated active human PAI-1 plus a titration of the unlabelled competitor, streptavidin-Europium detection
rat PAI-1 (rat) = target: T1, rat PAI-1 (rat); assay: cell-based or functional assay
[2] = target: active human PAI-1, recombinant, wild-type, non-glycosylated (E. coli) (human) (UniProt P05121); assay: cell-based or functional assay
Chain of active human PAI-1, recombinant, wild-type, non-glycosylated (E. coli) (human) (P05121 24-402): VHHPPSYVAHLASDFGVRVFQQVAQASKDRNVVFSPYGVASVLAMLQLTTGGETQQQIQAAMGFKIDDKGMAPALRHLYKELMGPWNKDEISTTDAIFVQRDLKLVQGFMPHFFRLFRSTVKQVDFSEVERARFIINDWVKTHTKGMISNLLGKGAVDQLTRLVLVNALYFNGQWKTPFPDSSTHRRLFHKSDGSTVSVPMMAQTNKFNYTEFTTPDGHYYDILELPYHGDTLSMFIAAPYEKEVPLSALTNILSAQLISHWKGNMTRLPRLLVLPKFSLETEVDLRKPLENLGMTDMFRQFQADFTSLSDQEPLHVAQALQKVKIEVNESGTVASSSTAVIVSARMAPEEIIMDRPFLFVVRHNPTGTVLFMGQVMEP

IC50 (read off the curve) [1] [nM] | Chromogenic (IC50 in nM) rat (rat PAI-1 (rat)) [nM] | Chromogenic IC50 ratio rat/human (rat PAI-1 (rat)) [fold] | HT-1080 Exo PAI-1 (IC50 in nM) rat (rat PAI-1 (rat)) [nM] | IC50 in the rat chromogenic assay, fold higher than in the human assay (rat PAI-1 (rat)) [fold] | Chromogenic (IC50 in nM) human [2] [nM] | Binder
6 |  |  |  |  |  | mouse PAI-1 (protein) ALPLRESHTAHQATDFGVKVFQQVVQASKDRNVVFSPYGVSSVLAMLQMTTAGKTRRQIQDAMGFKVNEKGTAHALRQLSKELMGPWNKNEISTADAIFVQRDLELVQGFMPHFFKLFQTMVKQVDFSEVERARFIINDWVERHTKGMINDLLAKGAVDELTRLVLVNALYFSGQWKTPFLEASTHQRLFHKSDGSTVSVPMMAQSNKFNYTEFTTPDGLEYDVVELPYQGDTLSMFIAAPFEKDVHLSALTNILDAELIRQWKGNMTRLPRLLILPKFSLETEVDLRGPLEKLGMPDMFSATLADFTSLSDQEQLSVAQALQKVRIEVNESGTVASSSTAFVISARMAPTEMVIDRSFLFVVRHNPTETILFMGQVMES
 | 238 | 190 | 37 | 180 | 1.3 | Antibody 18 scFv (scFv, V domains shown, part only, linker not stated) VH: QVQLQQSGAEVKKPGSSVKVSCKASGGTFSSYAISWVRQAPGQGLEWMGGIIPTFGTANYAQKLQGRVTITADESTSTAYMELSGLRSEDTAVYYCAREKRQWLEGHFDYWGRGTPVTVSS VL: DIQMTQSPSFLSASIGDRVTITCRASEGIYHALAWYQQKPGKAPKLLIYRASSLASGAPSRFSGSGSGTDFTLTISSLQPDDFATYYCQQYSNYPLTFGGGTKLEIK
